Assay results reported in PMC9428257.

B1: yeast-displayed wild-type sBCMA (human BCMA extracellular domain, Met1-Ala54) [human] / human APRIL (a proliferation-inducing ligand) [human] (parent)
chain 1: MLQMAGQCSQNEYFDSLLHACIPCQLRCSSNTPPLTCQRYCNASVTNSVKGTNA
chain 2: AVLTQKQKKQHSVLHLVPINATSKDDSDVTEVMWQPALRRGRGLQAQGYGVRIQDAGVYLLYSQVLFQDVTFTMGQVVSREGQGRQETLFRCIRSMPSHPDRAYNSCYSAGVFHLHQGDILSVIIPRARAKLNLSPHGTFLGFVKL

Variants of: B1
Test: flow cytometry binding of yeast-displayed sBCMA
Details: with human APRIL (a proliferation-inducing ligand) [human]; parent: 262

Row | Variant | screen value
1 | chain 1 MLQMAGQCPQDEYFDGLLYACIPCQLRCSSNTPPLACQRYCNASVTSSVKGTDA [chain 1 S9P N11D S16G H19Y T36A N47S N53D] | 1310
2 | chain 1 MLQMAGQCSQNEYFDGLLYACIPCQLRCSSNTPPLACQRYCNASVTNSVKGTNA [chain 1 S16G H19Y T36A] | 325
3 | chain 1 MLQMAGQCSQNEYFDGLLHACIPCQLRCSSNTPPLACQRYCNASVTNSVKGTNA [chain 1 S16G T36A] | 102

Variants of: B1
Test: flow cytometry binding curve of yeast-displayed sBCMA
Details: with human APRIL (a proliferation-inducing ligand) [human]

Row | Variant | Kd | screen value
4 | chain 1 MLQMAGQCSQNEYFDGLLYACIPCQLRCSSNTPPLACQRYCNASVTNSVKGTNA [chain 1 S16G H19Y T36A] | 0.018 nM | 5860 A.U.
5 | chain 1 MLQMAGQCSQNEYFDGLLYACIPCQLRCSSNTPPLACQRYCNASVTNSVKGTDA [chain 1 S16G H19Y T36A N53D] | 0.008 nM | 
